Laboratory results reported in the supplement of paper PMC9112550, “Optimization of the antimicrobial peptide Bac7 by deep mutational scanning” (BMC Biology, 2022).

Test system: Escherichia coli TOP10
Test: shrunken log2 fold change of peptide-encoding DNA abundance (4.5 h post-induction vs induction); higher = less antimicrobial activity (less host growth inhibition)
Conditions: time post-induction: 4.5 h; library: site-saturation at positions 5, 18, 19, 20
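Note: peptides expressed intracellularly from a pBAD plasmid library in pooled LB shake-flask culture, induced with 0.3% L-arabinose, DNA abundance read by NGS, three biological replicates, DESeq2 with apeglm shrinkage.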

Row | Sequence | shrunken log2 fold change
1 | RRIRKRPPRLPRPRPRPRIVPRP | 0.161
2 | RRIRERPPRLPRPRPRPTMFPRP | -0.724
3 | RRIRCRPPRLPRPRPRPGIFPRP | 0.0252
4 | RRIRARPPRLPRPRPRPVLSPRP | 0.26
5 | RRIRYRPPRLPRPRPRPVPWPRP | 0.277
6 | RRIRCRPPRLPRPRPRPDLGPRP | 0.43
7 | RRIRSRPPRLPRPRPRPMWMPRP | -0.344
8 | RRIRDRPPRLPRPRPRPPDHPRP | 0.527
9 | RRIRIRPPRLPRPRPRPVRCPRP | 0.201
10 | RRIRRRPPRLPRPRPRPDWTPRP | -0.133
11 | RRIRVRPPRLPRPRPRPCWVPRP | 0.0559
12 | RRIRMRPPRLPRPRPRPMWLPRP | 0.208
13 | RRIRIRPPRLPRPRPRPWPIPRP | -0.0934
14 | RRIRGRPPRLPRPRPRPNCFPRP | 0.268
15 | RRIRFRPPRLPRPRPRPSDAPRP | -0.00375
16 | RRIRNRPPRLPRPRPRPMAKPRP | 0.0197
17 | RRIRPRPPRLPRPRPRPTIKPRP | -0.313
18 | RRIRGRPPRLPRPRPRPCEMPRP | 0.852
19 | RRIRCRPPRLPRPRPRPFAGPRP | -0.175
20 | RRIRPRPPRLPRPRPRPREMPRP | 0.319
21 | RRIRARPPRLPRPRPRPCEIPRP | 0.196
22 | RRIRWRPPRLPRPRPRPKYWPRP | 0.0306
23 | RRIRRRPPRLPRPRPRPKSDPRP | 0.441

Row | Sequence | shrunken log2 fold change
24 | RRIRFRPPRLPRPRPRPAIKPRP | -0.328
25 | RRIRPRPPRLPRPRPRPSHYPRP | -0.479
26 | RRIRCRPPRLPRPRPRPEMDPRP | 0.0321
27 | RRIRDRPPRLPRPRPRPVHFPRP | 0.033
28 | RRIRRRPPRLPRPRPRPDGEPRP | -0.0341
29 | RRIRYRPPRLPRPRPRPDEQPRP | -0.00172
30 | RRIRWRPPRLPRPRPRPVKNPRP | 0.238
31 | RRIRIRPPRLPRPRPRPAYSPRP | -0.534
32 | RRIRQRPPRLPRPRPRPDTPPRP | -0.039
33 | RRIRERPPRLPRPRPRPGEHPRP | 0.0251
34 | RRIRWRPPRLPRPRPRPPVNPRP | 0.13
35 | RRIRRRPPRLPRPRPRPPFNPRP | 0.333
36 | RRIRGRPPRLPRPRPRPKWEPRP | 1.13
37 | RRIRERPPRLPRPRPRPVWWPRP | 0.149
38 | RRIRTRPPRLPRPRPRPQTFPRP | -0.567
39 | RRIRGRPPRLPRPRPRPHIIPRP | 0.234
40 | RRIRRRPPRLPRPRPRPDTKPRP | -0.139
41 | RRIRFRPPRLPRPRPRPFYEPRP | -0.886
42 | RRIRPRPPRLPRPRPRPQQAPRP | 0.106
43 | RRIRCRPPRLPRPRPRPVLLPRP | -0.385
44 | RRIRSRPPRLPRPRPRPMDIPRP | -0.00112
45 | RRIRTRPPRLPRPRPRPWHKPRP | -0.168
46 | RRIRPRPPRLPRPRPRPELIPRP | 0.0313

Row | Sequence | shrunken log2 fold change
47 | RRIRLRPPRLPRPRPRPWNPPRP | -0.059
48 | RRIRDRPPRLPRPRPRPPFMPRP | 0.042
49 | RRIRERPPRLPRPRPRPMVWPRP | -0.0633
50 | RRIRVRPPRLPRPRPRPTCAPRP | 0.579
51 | RRIRNRPPRLPRPRPRPGTNPRP | -0.0826
52 | RRIRVRPPRLPRPRPRPSNKPRP | -0.751
53 | RRIRSRPPRLPRPRPRPMKVPRP | -0.0404
54 | RRIRWRPPRLPRPRPRPKRGPRP | 0.239
55 | RRIRLRPPRLPRPRPRPGGWPRP | 0.71
56 | RRIRSRPPRLPRPRPRPCNVPRP | -0.175
57 | RRIRYRPPRLPRPRPRPRLKPRP | 3.7
58 | RRIRGRPPRLPRPRPRPRYRPRP | 0.0699
59 | RRIRWRPPRLPRPRPRPFEQPRP | 0.0143
60 | RRIRSRPPRLPRPRPRPISDPRP | 0.103
61 | RRIRARPPRLPRPRPRPLWVPRP | 0.959
62 | RRIRDRPPRLPRPRPRPTRTPRP | 0.246
63 | RRIRCRPPRLPRPRPRPFAVPRP | -0.169
64 | RRIRKRPPRLPRPRPRPRYFPRP | 0.135
65 | RRIRYRPPRLPRPRPRPFDNPRP | 0.0112
66 | RRIRRRPPRLPRPRPRPKPLPRP | 0.474
67 | RRIRVRPPRLPRPRPRPMAMPRP | -0.00688
68 | RRIRARPPRLPRPRPRPSFPPRP | -0.0947
69 | RRIRCRPPRLPRPRPRPQVFPRP | -0.13

Row | Sequence | shrunken log2 fold change
70 | RRIRDRPPRLPRPRPRPSHPPRP | -0.425
71 | RRIRQRPPRLPRPRPRPSRTPRP | -0.29
72 | RRIRLRPPRLPRPRPRPNVTPRP | -0.286
73 | RRIRYRPPRLPRPRPRPPICPRP | -0.801
74 | RRIRKRPPRLPRPRPRPDTCPRP | 0.0482
75 | RRIRSRPPRLPRPRPRPACGPRP | 0.436
76 | RRIRKRPPRLPRPRPRPDKRPRP | -0.0063
77 | RRIRIRPPRLPRPRPRPPSCPRP | -0.0736
78 | RRIRQRPPRLPRPRPRPMPEPRP | -0.237
79 | RRIRQRPPRLPRPRPRPLAIPRP | -0.122
80 | RRIRFRPPRLPRPRPRPFMTPRP | -0.333
81 | RRIRNRPPRLPRPRPRPYKDPRP | 0.0141
82 | RRIRPRPPRLPRPRPRPWQRPRP | -0.0107
83 | RRIRWRPPRLPRPRPRPFCQPRP | -0.0441
84 | RRIRKRPPRLPRPRPRPPTPPRP | 0.796
85 | RRIRSRPPRLPRPRPRPYMNPRP | -0.479
86 | RRIRVRPPRLPRPRPRPSKSPRP | -0.172
87 | RRIRSRPPRLPRPRPRPTAIPRP | -0.0172
88 | RRIRKRPPRLPRPRPRPTAEPRP | 0.079
89 | RRIRFRPPRLPRPRPRPAYKPRP | -0.314
90 | RRIRVRPPRLPRPRPRPYAVPRP | -0.481
91 | RRIRIRPPRLPRPRPRPAWGPRP | 0.0665
